Measurements: the RNAGym collection of RNA variant scans (doi:10.7554/elife.90254)

B1: LINE1-full (parent)
chain: UACGUAGGUGGUUUUCCCCUGAUAGUGCUAAGGGGGCCUGGAAGUUUGGACUGGGCAGAGCUCAACACAGCGUGGCAAAGUGGCUGUGGCUAGACUGCCUCUCUGGAUUCCUCGUCACUCAGCAGGGCAUCUCUGAGAGAAAUGCC

Variants of: B1
Assay: self-cleavage, relative activity (ratio to wild type); higher = more cleavage; in vitro, sequencing; the parent is a self-cleaving ribozyme

Row | Variant | self-cleavage
1 | C16A U47G | 0.75
2 | C16A U52C | 0.69
3 | C16A U81A | 0.75
4 | C16A U104A | 0.47
5 | C16A U115C | 0.41
6 | C16G C71G | 0.42
7 | C16U | 1.12
8 | C16U A67G | 0.45
9 | C16U A77U | 1.4
10 | C16U A92G | 0.2
11 | C16U A92U | 0.58
12 | C16U A117G | 0.57
13 | C16U A124G | 0.58
14 | C16U A136U | 1.29
15 | C16U A138G | 2.06
16 | C16U A140U | 1.78
17 | C16U C38U | 1.06
18 | C16U G40U | 0.6
19 | C16U U20A | 1.02
20 | C16U U91C | 0.74
21 | C16U U96A | 0.03
22 | C16U U96C | 0.11
23 | C16U U100A | 0.32
24 | C16U U104C | 1.03

Row | Variant | self-cleavage
25 | C16U U108C | 1.72
26 | C16U U132C | 1.12
27 | C16U U134C | 2.6
28 | C17A A22G | 2.19
29 | C17A A43G | 0.89
30 | C17A A67G | 0.56
31 | C17A U46C | 1.42
32 | C17A U108C | 1.96
33 | C17A U115C | 0.71
34 | C17G A141G | 0.47
35 | C17G U91C | 0.38
36 | C17G U102A | 1.38
37 | C17G U108C | 0.81
38 | C17U A22U | 1.21
39 | C17U A42G | 1.36
40 | C17U A50G | 0.59
41 | C17U A59G | 0.17
42 | C17U A64G | 0.22
43 | C17U A65G | 0.18
44 | C17U A65U | 0.07
45 | C17U A67G | 0.34
46 | C17U A69G | 0.4
47 | C17U A77U | 0.36
48 | C17U A79U | 1.1

Row | Variant | self-cleavage
49 | C17U A121G | 1.53
50 | C17U A138G | 1.06
51 | C17U A138U | 1.29
52 | C17U A140U | 1.11
53 | C17U G49U | 1.69
54 | C17U U26A | 0.85
55 | C17U U39C | 0.92
56 | C17U U46A | 0.72
57 | C17U U47A | 1.34
58 | C17U U62C | 0.04
59 | C17U U87A | 0.11
60 | C17U U87C | 0.23
61 | C17U U104C | 1.33
62 | C17U U115C | 1.48
63 | C17U U143A | 0.85
64 | C17U U143C | 1.03
65 | C18A | 1.39
66 | C18A A22G | 0.7
67 | C18A A24G | 1.11
68 | C18A A42G | 1.45
69 | C18A A138G | 2.26
70 | C18A A138U | 1.66
71 | C18A C37G | 0.99
72 | C18A G58U | 0.07

Row | Variant | self-cleavage
73 | C18A U45A | 1.06
74 | C18A U73G | 1.01
75 | C18A U81C | 1.31
76 | C18A U96C | 0.22
77 | C18A U104A | 0.85
78 | C18A U115C | 1.85
79 | C18A U132A | 1.38
80 | C18A U143C | 0.56
81 | C18G | 1.36
82 | C18G A65U | 0.28
83 | C18G A124G | 1.02
84 | C18G U115C | 1.67
85 | C18U | 1.17
86 | C18U A30U | 0.14
87 | C18U A42C | 0.74
88 | C18U A43G | 2.02
89 | C18U A64U | 0.19
90 | C18U A65G | 0.07
91 | C18U A69C | 0.07
92 | C18U A77G | 1.91
93 | C18U A77U | 1.11
94 | C18U A78G | 0.88
95 | C18U A78U | 0.9
96 | C18U A79G | 1

Row | Variant | self-cleavage
97 | C18U A94G | 0.32
98 | C18U A129G | 0.81
99 | C18U A136G | 1.33
100 | C18U C56U | 0.24
101 | C18U C71A | 0.09
102 | C18U G25A | 0.39
103 | C18U G60A | 0.01
104 | C18U G126U | 1.62
105 | C18U G144A | 0.75
106 | C18U U26C | 2.16
107 | C18U U45C | 0.57
108 | C18U U85A | 0.13
109 | C18U U85G | 0.23
110 | C18U U96A | 0.08
111 | C18U U100C | 1.53
112 | C18U U102C | 1.61
113 | C18U U102G | 0.62
114 | C18U U108C | 0
115 | C18U U134G | 1.95
116 | C19A | 0.97
117 | C19A A42G | 0.33
118 | C19A A50G | 1.48
119 | C19A A59G | 0.13
120 | C19A A77G | 2.71

Row | Variant | self-cleavage
121 | C19A A78G | 1.53
122 | C19A A124G | 0.58
123 | C19A A138C | 1.07
124 | C19A A138G | 0.72
125 | C19A A142G | 1.3
126 | C19A C128U | 1.08
127 | C19A G32A | 0.91
128 | C19A G72A | 1.07
129 | C19A U20C | 1.04
130 | C19A U26A | 1.16
131 | C19A U62C | 0.28
132 | C19A U85G | 0.13
133 | C19A U104C | 1.14
134 | C19A U108C | 1.46
135 | C19G | 0.35
136 | C19G A42G | 1.41
137 | C19G A77G | 2.07
138 | C19G G126A | 0.49
139 | C19G U26C | 1.2
140 | C19G U52A | 1.16
141 | C19U | 1.21
142 | C19U A22G | 1.18
143 | C19U A43U | 1.41
144 | C19U A65G | 0.14

Row | Variant | self-cleavage
145 | C19U A67U | 0.1
146 | C19U A69G | 0.77
147 | C19U A77U | 1.3
148 | C19U A78C | 1.71
149 | C19U A78U | 1.72
150 | C19U A107G | 1.41
151 | C19U A107U | 1.5
152 | C19U A117U | 1.28
153 | C19U A121G | 0.42
154 | C19U A121U | 1.03
155 | C19U A124U | 0.76
156 | C19U A129U | 1.84
157 | C19U A136G | 0.95
158 | C19U A141G | 0.99
159 | C19U A141U | 1
160 | C19U C38A | 1.13
161 | C19U C51U | 1.01
162 | C19U C84U | 0.22
163 | C19U C95U | 0.43
164 | C19U G32A | 0.87
165 | C19U G54A | 0.57
166 | C19U G74A | 1.12
167 | C19U G89A | 0.11
